Each block holds one molecule with its values, some of them ahead of it. No end group written: not given here.
Experiments:
FLNCd18–21 [1] = target: T1, FLNCd18–21 (Homo sapiens, UniProt Q14315); assay: native MS peptide titration / complex detection with FLNCd18–21; assay type: binding; conditions: for complex formation with FLNCd18–21: native MS, 200 mM ammonium acetate pH 6.9, peptides at 30 μM with 5 μM FLNCd18–21 (fig. S5D)
T1 construct: WT, residues 1943 to 2408 from UniProt ID Q14315; 6xHis (C); EEF (C); made in house; host or cells: E. coli BL21(DE3) pLysS
T1 sequence (Q14315 1943-2408): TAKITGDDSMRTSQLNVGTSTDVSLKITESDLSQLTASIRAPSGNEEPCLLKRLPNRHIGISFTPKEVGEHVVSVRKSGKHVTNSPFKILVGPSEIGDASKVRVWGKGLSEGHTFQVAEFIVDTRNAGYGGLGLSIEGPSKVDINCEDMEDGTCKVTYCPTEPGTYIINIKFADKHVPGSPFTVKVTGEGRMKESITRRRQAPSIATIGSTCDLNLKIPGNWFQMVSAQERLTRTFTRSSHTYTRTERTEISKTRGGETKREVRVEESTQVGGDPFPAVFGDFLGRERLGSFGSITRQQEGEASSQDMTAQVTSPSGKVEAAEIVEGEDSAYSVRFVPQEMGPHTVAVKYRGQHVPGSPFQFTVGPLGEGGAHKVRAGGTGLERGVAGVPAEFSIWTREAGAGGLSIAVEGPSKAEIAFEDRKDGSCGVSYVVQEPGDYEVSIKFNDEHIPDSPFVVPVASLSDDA
Excerpt: To isolate a stable HspB1-FLNCd18–21 complex and localize the binding within HspB1, we performed native ion mobility MS (IM-MS) experiments. […] Next, we mixed FLNCd18–21 with either HspB1_84–171 or peptides mimicking the PPR, because this region is phosphorylated in the MLP KO mice (Fig. 1C) and generally upon biomechanical stress ([26]) and becomes exposed thereafter. This strategy of using segments of HspB1 meant that we could avoid the problems of insolubilization of the full-length protein upon interaction with FLNC d18–21, as well as generally mitigate the confounding effects associated with the chaperone’s intrinsic polydispersity.
By quantifying the relative abundances of FLNCd18–21 and the peptide-bound species, we could determine binding affinities (Fig. 4B, lower panel, and fig. S4G). We obtained similar dissociation constants (KDs) of 130 ± 17 μM (HspB1_80–88) and 110 ± 10 μM (^PHspB1_80–88), indicating weak binding that is not affected substantially by phosphorylation. These findings contrast with the notable effect of HspB1 phosphomimicry on the interaction of full-length chaperone with the FLNC fragment (Fig. 1E). However, they can be rationalized by phosphorylation increasing the effective concentration of the binding region by modulating its conformational state (Fig. 2B and fig. S3) and leading to dimer (Fig. 2D) and oligomer disassembly ([22], [23]). To localize binding of HspB1_80–88 to domains with Ig folds or to the d20 insertion (which is possibly disordered), we prepared a modified FLNC construct lacking the 82 insertion residues (FLNCd18–21,ΔI).
The region of human FLNC comprising domains 18 to 21 (WT, residues 1943 to 2408 from UniProt ID Q14315; ∆I, residues 1943 to 2408 excluding 2163 to 2243) was encoded in a modified pET23a/EEF with C-terminal 6× His and EEF tags. The plasmid was transformed into E. coli BL21(DE3) pLysS cells (Agilent). To generate the Mβ construct, mutations E2136R and I2138E were introduced by site-directed mutagenesis. Cells were grown in LB at 37°C until an OD600 of 0.6 to 0.8 was reached. […] Purity was assessed by SDS-PAGE, and protein was stored in MS buffer at −80°C and used for experiments within 2 weeks of purification, after noticing in initial preparations some propensity for destabilization and aggregation following long-term storage. […]
Because HspB1 can form disulfide-linked dimers, experiments involving the ACD were performed in the presence of 10-fold molar excess DTT. […] Native MS and IM-MS data were recorded on a Synapt G1 mass spectrometer (Waters) modified for the transmission of intact noncovalent protein complexes. HspB1_77–171 variants were analyzed at a concentration of 10 μM in 200 mM ammonium acetate (pH 6.9). […]

EEF-tagged FLNCd18–21 = assay: coimmunoprecipitation of recombinant proteins; assay type: binding, human; conditions: T7 antibody pull-down, 1 μg HspB1, 10 μg FLNCd18–21, 1 hour, room temperature
Description: (§1) Next, to validate the interaction in vitro, we expressed EEF-tagged human FLNC domains 18 to 21, encompassing the apparent HspB1 binding site ([16]), and full-length human HspB1 attached to a T7 tag. […] To investigate the effect of HspB1 phosphorylation on the interaction, we expressed WT human HspB1 and ^3PHspB1, a triple mutant containing phosphomimetic Ser to Asp substitutions at residues 15, 78, and 82. Upon incubation with FLNCd18–21 in vitro, we noticed that mixtures accumulated insoluble protein aggregates, while isolated proteins remained soluble. […] The results support an interaction between HspB1 and FLNCd18–21 to form large complexes that can be modulated by phosphorylation of HspB1.
T7-tagged purified recombinant HspB1 protein (1 μg) was added to 10 μg of EEF-tagged recombinant FLNCd18–21 in immunoprecipitation (IP) buffer [0.05% Triton X-100, 1% bovine serum albumin, protease inhibitors (Roche mini complete EDTA-free tablets) in phosphate-buffered saline (PBS)] and incubated for 1 hour, shaking at room temperature. This was followed by another 30-min incubation, shaking at room temperature after the addition of 0.5 μg of anti-T7 (69522, Novagen) or mouse IgG2b isotype (ab18457, Abcam) antibody. Next, 25 μl of protein G Sepharose resin (PC-G5, Generon) was added to each tube and incubated for 1 hour, shaking at room temperature. […]

FLNCd18–21 [2] = target: T1, FLNCd18–21; assay: SDS-PAGE aggregation assay with FLNCd18–21; assay type: biochemical; conditions: 80 μM HspB1 + 40 μM FLNCd18–21 (2:1), 200 mM ammonium acetate pH 6.9, 500 μM DTT, 25°C, 90 min, densitometry
Description: as §1
HspB1 (WT or 3P) was mixed with FLNCd18–21 at a 2:1 ratio (80 and 40 μM, respectively) in 200 mM ammonium acetate (pH 6.9) with 500 μM DTT and incubated at 25°C for 90 min. Aliquots were removed periodically and pelleted at 13,000g at 10°C for 10 min. Soluble fractions were diluted threefold with 200 mM ammonium acetate for analysis by SDS-PAGE, and pellets were resuspended in the same volume of 200 mM ammonium acetate and solubilized upon addition of the SDS-PAGE loading buffer. Gel bands were quantified by densitometry, using the raw intensities of FLNC and HspB1 bands to extract relative soluble and insoluble proportions at each time point.

[3] = target: T2, human FLNC domains 18 to 21 (FLNC_(d18–21)), EEF-tagged (human, UniProt Q14315 1943-2408); assay: native MS; native IM-MS of mixtures of FLNC_(d18–21) or FLNC_(d18–21,ΔI) with HspB1_(84–171), HspB1 peptides or an excess of control peptides; 200 mM ammonium acetate pH 6.9; conditions: both partners purified
T2 construct: human filamin C, domains 18 to 21, residues 1943 to 2408 of UniProt Q14315; Modified pET23a/EEF vector; No cleavage of the tags is described; also called FLNC fragment; source: E. coli BL21(DE3) pLysS, purified (HisTrap, SEC Superdex 200); not shown: EEF, C-terminal, kept
T2 sequence (looked up): T1 sequence (Q14315 1943-2408)

[4] = target: T2, human FLNC domains 18 to 21 …; assay: native MS; titration: FLNC_(d18–21) constant at 5 μM, peptide 5 to 160 μM, 200 mM ammonium acetate pH 6.9, acetonitrile vapor; fit with three equivalent binding sites (UniDec); conditions: both partners purified
[5] = target: T2, human FLNC domains 18 to 21 …; assay: cell-based or functional assay

Molecule: T7-tagged HspB1: Full-length WT HspB1 with an N-terminal T7 tag
coimmunoprecipitation of FLNCd18–21 (EEF-tagged FLNCd18–21): pulled down both HspB1 and FLNCd18–21 | coimmunoprecipitation of FLNCd18–21 (EEF-tagged FLNCd18–21; listed as full-length human HspB1 attached to a T7 tag): confirming a direct interaction

Molecule: WT human HspB1: Full-length WT HspB1
migration to pelleted fraction of mixture with FLNCd18–21 (FLNCd18–21 [2]): both proteins migrated to the pelleted fraction over time

Molecule: ^3PHspB1: Full-length human HspB1 with Ser to Asp phosphomimic substitutions at residues 15, 78 and 82
migration to pelleted fraction of mixture with FLNCd18–21 (FLNCd18–21 [2]): substantially increased by phosphomimicry

B1: ^PHspB1_(80–88) phosphorylated peptide (peptide, UniProt P04792 80-88, looked up)
peptide: QLSSGVSEI
modifications: also: phosphorylated, site not given here
notes: N-terminal acetylation open as for m13; also called phosphopeptide; source: synthetic peptide, bought: Biomatik
stoichiometry N [3]: ≤ 2 | Kd [4]: 110 ± 10 µM | stoichiometry N [4]: ≤ 3 | activation required for the transition of unfolding intermediate B to final state C of FLNC_(d18–21) with one peptide bound (coulombically steered unfolding, IM-MS) [5]: ~75 V

Second part, the molecule after the results:

complex formation with FLNCd18–21 (FLNCd18–21 [1]): Complexes were not observed | complex formation with FLNCd18–21 (FLNCd18–21 [1]; listed as HspB184-171): No complex is observed
Molecule: HspB1_84–171: Human HspB1 α-crystallin domain (ACD)

complex formation with FLNCd18–21 (FLNCd18–21 [1]): No appreciable complex is detected
Molecule: HspB1_177–186: Peptide from human HspB1, C-terminal residues 177 to 186 (NEITIPVTFE; UniProt P04792 177-186, looked up, fragment) [reference compound]

Kd (FLNCd18–21 [1]; native MS titration, 5 μM FLNCd18–21, 5 to 160 μM peptide, 200 mM ammonium acetate pH 6.9, minimum three technical repeats, model of three equivalent binding sites, 500 bootstraps, apparent KD, read-out: dissociation constant KD (apparent)): > 100 µM
Molecule: QLSSGVSEI [HspB1_80–88]

— publication PMC6530996, “HspB1 phosphorylation regulates its intramolecular dynamics and mechanosensitive molecular chaperone interaction with filamin C” (Science Advances, 2019)
